The test is described as follows: frontal affinity chromatography (FAC), association constant to PA sugar chains having α1→6 L-fucose. The note with it: 25 degrees C. It counts as binding. Here is the method:
The following section will describe a method of calculating an association constant by frontal affinity chromatography (FAC). This method is based on the following principle. […] Then, the elution front end (front) is observed immediately. When there is an affinity with lectin, the elution of the sugar chain is delayed.
The preparation of a lectin column used in the apparatus is performed in the method as described below. 1. Purified lectin is dissolved in 0.1 to 0.2M of NaHCO3 buffer solution (pH 8.3 to 8.5). 2. The lectin is immobilized, via a lectin primary amino group, a carrier such as NHS activated sepharose. 3. Then, the lectin is blocked by Tris buffer solution including primary amine or ethanolamine for example. 4. Lectin-sepharose is suspended in 10 mM Tris buffer, including 0.8% of NaCl (pH 7.4, TBS). Then, lectin immobilized resin is filled in a miniature column (φ2 mm×10 mm, 31.4 μl). 5. The miniature column in which the lectin immobilized resin is filled is protected by a holder and the lectin column is connected to an FAC automatic analysis apparatus (FAC-1, SHIMADZU CORPORATION).
Then, the elution of the PA sugar chain from the column is detected by a fluorescence detector (excitation wavelength/fluorescence wavelength: 310 nm/380 nm).
Based on the detection data, by using the elution front end (Vo) of the sugar chain (PA rhamnose) not interacting with lectin as a reference, the delay (V−Vo) of the elution front end (V) of a sugar chain interacting with lectin is calculated as an interaction strength. Then, based on the following FAC criteria expressions, the association constant (Ka) between the sugar chain and lectin is calculated based on V−Vo and Bt. If the interaction strength (V−Vo value) and the association constant are higher, a higher affinity is caused between lectin and an L-fucose α1→6 sugar chain.
[In the formula, A means substance used for the elution, Ao means the initial concentration of the substance A, B means a immobilized ligand, V means the elution volume, Vo means the elution front end volume of the substance not interacting with the immobilized ligand B at all, Bt means an effective ligand amount, Kd means a dissociation constant (an inverse of the association constant)].
Pyridylaminated (PA) sugar chains shown in FIG. 1 and FIG. 2 were used to frontal affinity chromatography (FAC) analysis. PA sugars were purchased from TAKARA BIO INC., SEIKAGAKU BIOBUSINESS CORPORATION, and Masuda Chemical Industries co., LTD. PA sugar were also obtained by pyridylaminating, by GlycoTAG®(TAKARA BIO INC.), an unlabeled sugar chain or a sugar chain obtained by subjecting a sugar chain to enzyme digestion for example.
Lectin was dissolved in 0.2 M NaHCO3 buffer solution (pH 8.3) including 0.5 M NaCl and coupled to the NHS-activated sepharose (GE Healthcare Bioscience) by following the manufacturer's instructions. Then, lectin immobilized sepharose was suspended in 10 mM Tris buffer (pH 7.4, TBS) including […] and the resultant matter was filled in a miniature column (φ2 mm×10 mm, 31.4 μl).
Frontal affinity chromatography was performed using FAC automatic analysis apparatus (FAC-1, SHIMADZU CORPORATION). In particular, the above-prepared lectin column was inserted to a stainless steel holder and the holder was connected to FAC-1 apparatus. The flow rate and the column temperature were maintained at 0.125 ml/min and 25 degrees C., respectively. After the miniature column was equilibrated by the TBS, an excessive volume (0.5 ml to 4 ml) of a PA sugar chain (3.75 nM or 7.5 nM) was continuously inputted to the column using an automatic sampling apparatus.
The fluorescent strength of the eluate of the PA sugar (excitation wavelength of 310 nm and fluorescence wavelength of 380 nm) was monitored to measure the interaction strength [a difference of the front end eluate to the standard oligosaccharide (PA rhamnose): V−V0]. […]

A value given as a limit tells only on which side of the number the result lay.

“Pholiota terrestris lectin [PTL, novel L-fucose α1→6 specific lectin purified from the mushroom Pholiota terrestris]”: the “association constant Ka to L-fucose α1→6 sugar chains” value (FAC) was no less than 100000 M⁻¹. Further, the “association constant Ka” value is 500000 M⁻¹ (Sugar chain No. 015); 460000 M⁻¹ (Sugar chain No. 201); 400000 M⁻¹ (Sugar chain No. 202); 330000 M⁻¹ (Sugar chain No. 203); 350000 M⁻¹ (Sugar chain No. 401); 200000 M⁻¹ (Sugar chain No. 402). In addition, the “association constant Ka” value is, setting by setting: (Sugar chain No. 403) 340000 M⁻¹; (Sugar chain No. 404) 390000 M⁻¹; (Sugar chain No. 405) 320000 M⁻¹; (Sugar chain No. 406) 220000 M⁻¹; (Sugar chain No. 407) 280000 M⁻¹; (Sugar chain No. 410) 220000 M⁻¹. For the same molecule, the “association constant Ka” value is 280000 M⁻¹ (Sugar chain No. 413), 220000 M⁻¹ (Sugar chain No. 418), 240000 M⁻¹ (Sugar chain No. 601) and 120000 M⁻¹ (Sugar chain No. 602).

For the molecule “Lepista sordida lectin [LSL, novel lectin purified from the mushroom Lepista sordida]”, the “association constant Ka” value worked out at 190000 M⁻¹ (Sugar chain No. 015); 230000 M⁻¹ (Sugar chain No. 201); 230000 M⁻¹ (Sugar chain No. 202); 200000 M⁻¹ (Sugar chain No. 203); 220000 M⁻¹ (Sugar chain No. 401); 150000 M⁻¹ (Sugar chain No. 402). Also, the “association constant Ka” value runs as follows: (Sugar chain No. 403) 220000 M⁻¹; (Sugar chain No. 404) 260000 M⁻¹; (Sugar chain No. 405) 220000 M⁻¹; (Sugar chain No. 406) 160000 M⁻¹; (Sugar chain No. 410) 160000 M⁻¹; (Sugar chain No. 418) 160000 M⁻¹. Further, for the setting “Sugar chain No. 602”, the “association constant Ka” value is 130000 M⁻¹.

B1: Pisum sativum agglutinin (protein)
chain: TETTSFLITKFSPDQQNLIFQGDGYTTKEKLTLTKAVKNTVGRALYSSPIHIWDRETGNVANFVTSFTFVINAPNSYNVADGFTFFIAPVDTKPQTGGGYLGVFNSAEYDKTTQTVAVEFDTFYNAAWDPSNRDRHIGIDVNSIKSVNTKSWKLQNGEEANVVIAFNAATNVLTVSLTYPNSLEEENVTSYTLSDVVSLKDVVPEWVRIGFSATTGAEYAAHEVLSWSFHSELSGTSSSKQAADA
For B1, the “association constant Ka” value (Sugar chain No. 015) turned out to be 120000 M⁻¹; the “association constant Ka” value (Sugar chain No. 201) came to 100000 M⁻¹; the “association constant Ka” value (Sugar chain No. 202) worked out at 44000 M⁻¹; the “association constant Ka” value (Sugar chain No. 203) is 25000 M⁻¹; the “association constant Ka” value (Sugar chain No. 401) was 92000 M⁻¹; the “association constant Ka” value (Sugar chain No. 402) stood at 48000 M⁻¹. Further, the “association constant Ka” value reads like this: (Sugar chain No. 403) 38000 M⁻¹; (Sugar chain No. 404) 45000 M⁻¹; (Sugar chain No. 405) 36000 M⁻¹; (Sugar chain No. 406) 13000 M⁻¹; (Sugar chain No. 407) less than 1000 M⁻¹; (Sugar chain No. 410) less than 1000 M⁻¹. Besides, the “association constant Ka” value (Sugar chain No. 413) is less than 1000 M⁻¹, the “association constant Ka” value (Sugar chain No. 418) was less than 1000 M⁻¹, the “association constant Ka” value (Sugar chain No. 601) is 31000 M⁻¹ and the “association constant Ka” value (Sugar chain No. 602) was 29000 M⁻¹.

B2: Lens culinaris agglutinin (protein)
chain 1: TETTSFSITKFSPDQKNLIFQGDGYTTKGKLTLTKAVKSTVGRALYSTPIHIWDRDTGNVANFVTSFTFVIDAPSSYNVADEFTFFIAPVDTKPQTGGGYLGVFNSKEYDKTSQTVAVEFDTFYNAAWDPSNKERHIGIDVNSIKSVNTKSWNLQNGERANVVIAFNAATNVLTVTLTYP
chain 2: VTSYTLNEVVPLKDVVPEWVRIGFSATTGAEFAAHEVHSWSFHSELGGTSSS
For B2, the “association constant Ka” value is, setting by setting: (Sugar chain No. 015) 56000 M⁻¹; (Sugar chain No. 201) 500000 M⁻¹; (Sugar chain No. 202) 110000 M⁻¹; (Sugar chain No. 203) 73000 M⁻¹; (Sugar chain No. 401) 42000 M⁻¹; (Sugar chain No. 402) 59000 M⁻¹. Further, the “association constant Ka” value by setting is: (Sugar chain No. 403) 99000 M⁻¹; (Sugar chain No. 404) 58000 M⁻¹; (Sugar chain No. 405) 47000 M⁻¹; (Sugar chain No. 406) 18000 M⁻¹; (Sugar chain No. 407) 1000 M⁻¹; (Sugar chain No. 410) less than 1000 M⁻¹. Moreover, the “association constant Ka” value (Sugar chain No. 413) was less than 1000 M⁻¹, the “association constant Ka” value (Sugar chain No. 418) is less than 1000 M⁻¹, the “association constant Ka” value (Sugar chain No. 601) was found to be 30000 M⁻¹ and the “association constant Ka” value (Sugar chain No. 602) amounted to 24000 M⁻¹.

B3: Aleuria aurantia lectin (protein)
chain: PTEFLYTSKIAAISWAATGGRQQRVYFQDLNGKIREAQRGGDNPWTGGSSQNVIGEAKLFSPLAAVTWKSAQGIQIRVYCVNKDNILSEFVYDGSKWITGQLGSVGVKVGSNSKLAALQWGGSESAPPNIRVYYQKSNGSGSSIHEYVWSGKWTAGASFGSTVPGTGIGATAIGPGRLRIYYQATDNKIREHCWDSNSWYVGGFSASASAGVSIAAISWGSTPNIRVYWQKGREELYEAAYGGSWNTPGQIKDASRPTPSLPDTFIAANSSGNIDISVFFQASGVSLQQWQWISGKGWSIGAVVPTGTPAGW
As for B3, the “association constant Ka” value was determined as 91000 M⁻¹ (Sugar chain No. 015); 51000 M⁻¹ (Sugar chain No. 201); 54000 M⁻¹ (Sugar chain No. 202); 66000 M⁻¹ (Sugar chain No. 203); 55000 M⁻¹ (Sugar chain No. 401); 11000 M⁻¹ (Sugar chain No. 402). Moreover, the “association constant Ka” value was found to be 52000 M⁻¹ (Sugar chain No. 403); 65000 M⁻¹ (Sugar chain No. 404); 56000 M⁻¹ (Sugar chain No. 405); 47000 M⁻¹ (Sugar chain No. 406); 45000 M⁻¹ (Sugar chain No. 407); 38000 M⁻¹ (Sugar chain No. 410). Moreover, the “association constant Ka” value is, setting by setting: (Sugar chain No. 413) 32000 M⁻¹; (Sugar chain No. 418) less than 1000 M⁻¹; (Sugar chain No. 601) 61000 M⁻¹; (Sugar chain No. 602) 52000 M⁻¹.

For the origin of these results see patent publication US8461305B2, “L-fucose α1→6 specific lectin” (J-Oil Mills, Inc., priority 2008, dated 2013).
